The supplement of paper PMC9170038

test system: MS2 coat protein; assay: apparent KD of MS2 coat protein; higher = weaker reporter binding; conditions: Eterna round: R107; input ligand: arginine 13.2 mM
Procedure, shortened: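 Titrations with SNAP-549-labelled MS2 coat protein ran in twofold steps from 0.7 or 1.5 nM to 3 µM, each step taking 0.8–1.5 h at the start and 10–20 min toward the end. The targets were designed RNA switches transcribed on-chip from Illumina sequencing clusters, held in 100 mM Tris-HCl pH 7.5, 80 mM KCl, 4 mM MgCl2, without or with constant ligand. Apparent KD was taken per design as the median of normalised cluster binding-curve fits.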

Row | Sequence | apparent KD of MS2 coat protein
1 | AGACAUGAGGAUCACCCAUGUAGUACGGAUACCAGAUCCAGAUGCAUCCCUUGGCAGCUGUGGUACAGCGUUACAUCGCUCGUAG [Exclusion - Theophylline A (Freestyle 22)] | 0.017 µM
2 | UGGGAAGGAGGAAGGAGCGCCAUAAGGGUGACAGUCUGGGUACAUGAGGAUCACCCAUGUAGGCAGGUAGGUCGCCUCGCUCUCA [XArg-B15] | 0.0262 µM
3 | CUGUUUGUUUGGGUCUGUCAAAAGAACGAUACCAGCCGCAUUAUGGGCCCUUGGCAGCGUAGGACAUGAGGAUCACCCAUGUACG [theeternabot_exclusion_MS2_Theo_A_16] | 0.016 µM
4 | UGUACUAUGUGAAGGAGCGAGAAUCCUACAUGAGGAUCACCCAUGUAAGAGCGAAAGCUCACUCAGGUAGGUCGCACAUAGUACU [#17 Same State - Arginine B] | 0.0317 µM
5 | ACAUGAGGAUCACCCAUGUGAAGCAGGGUACGAGGACCGGUACGGCCGCCACUCGAGCAUUAUACCGAGUGAAUGGCAACGAUGU [whbob_Ex_trypto A_2s17] | 0.0144 µM
6 | AGUAGCUGCCGAAGGAGCGCCGUGUUCCUACAUGAGGAUCACCCAUGUAGCGUUGGGUUACGGCAGGUAGGUCGCGGCAGAUAGG [#18 Same State - Arginine B] | 0.0231 µM
7 | ACAUGAGGAUCACCCAUGUGUGUAAAUCCUCGAGGACCGGUACGGCCGCCACUCGAACGAGUGUAAGUUGAAUGUAACAUUCAAC [SS Trp A v1] | 0.0473 µM
8 | ACGAAACAAGCGGCCGCCACUUCGUGGUGCUAAGGCUUGAUACUACAUGAGGAUCACCCAUGUCGAAGGACCGGGCUUGCGACUG [theeternabot_sameState_MS2_Trp_B_33] | 0.0434 µM
9 | CGGUCGGUCGGCCGGUGAUUAUGGGAUGAAGGAGCGUGGGAAGCUACAGGUAGGUCGCAUCCGAAAGAUGAGGAUCACCCAUCUU [SSArg A #24Alt-Ms2 Mod] | 0.0244 µM
10 | AAAUAUAACUCGGCCGCCACUGACAUGAGGAUCACCCAUGUUAUAUUUUAUACAUGAGGAUCACCCAGGACCGGGAGAAUAUAAA [Jonah 1] | 0.0617 µM
11 | UCGUGAGUUUCGGAUACCAGUGUGGUCGAUACAUGAGGAUCACCCAUGUUAGAGGAGGUACACCCUUGGCAGCCGGCUGUGGCGG [hlhmullin] | 0.0314 µM
12 | AGCGUGCAUAGGAAAACUAUGUACGCAAAUCGAGGACCGGUACGGCCGCCACUCGUCCUCAACAUGAGGAUCACCCAUGUAAUAA [Mat - Exclusion - Trytophan A - D9] | 0.0189 µM
13 | GAAUCUACAAACGAUACCAGAUCCGGCUGCCACAUGAGGAUCACCCAUGUCUAGCGACUCAUCCCUUGGCAGCGUGUGCAUCCCG [theeternabot_sameState_MS2_Theo_B_37] | 0.147 µM
14 | AUAUUAAUCGGAAGGAGCGGUACAUGAGGAUCACCCAUGUGCUAAGCUAGCAGAUCCCGUUACCAGGUAGGUCGCCGAGUUAUGA [Titeonra] | 0.0356 µM
15 | ACAUGAGGAUCACCCAUGUUCCUCGCCGAUACCAGUGAAGAAUUACGCCCUUGGCAGCGGAAUGAGUGUUUUGGAGAUGAGGUAC [6.aB] | 0.0844 µM
16 | GGUCUCUGGAGCGAUACCAGCUUGAUCGUACUAGCCUGGUACAUGAGGAUCACCCAUGUAAGCCCUUGGCAGCGCUCCAGAGACC [#1 Exclusion - Theophylline B Attempt #8 (HarryS)] | 0.0118 µM
17 | CCGGGCCCGGGCGACCGGGCCCGGACUGAAGGAGCGGGAAUAAACCCAGGUAGGUCGCAGAGAUCCACAUGAGGAUCACCCAUGU [!0.V] | 0.0317 µM
18 | GACGGCUCGACGGCCGCCACUCCCUCCGACUGAAGGCACAGUGGACAUGAGGAUCACCCAUGUCCGAGGACCGGGUCGAUCCUGG [theeternabot_sameState_MS2_Trp_B_32] | 0.0145 µM
19 | ACUCGGCAUCAUGAUACCAGAGAGCCCGAGAUGCCUUAACACAUGAGGAUCACCCAUGUACUCCCUUGGCAGCAUCAUGCACUAU [theeternabot_exclusion_MS2_Theo_B_31] | 0.0166 µM
20 | UCAAUAAUUAGAUUGUUACAUGUAUCAGAAGGAGCGUGAGUAAUCACAGGUAGGUCGCUGUUAACAUGAGGAUCACCCAUGUUUU [JR_ExcArginiA_Sub009] | 0.0312 µM
21 | GGUGGCGUGACGGAUACCAGCCACCACCGCAAGACCACAUGAGGAUCACCCAUGUUGGGUGGCCCUUGGCAGCUGUCGUGCGGCG [#1 Same State - Theophylline B Attempt #19 (HarryS)] | 0.015 µM
22 | ACAUGAGGAUCACCCAUGUAAUCAUCAGAAGGAGCGUGGAAUAACACAGGUAGGUCGCUGAUGUUAUGUUAAAAUGGUUCGUGAA [JR_ExcArginiA_Sub002] | 0.0188 µM
23 | GUGCCGCAUUCACAUGAGGAUCACCCAUGUCGAGGACCGGUACGGCCGCCACUCGACGUGCUUACAGGUCCUUUAAGGCCCAAUA [Usislaan] | 0.079 µM
24 | ACAAGGACAUGAGGAUCACCCAUGUGGGAAGGAGCGCAUAAAUAUGCAGGUAGGUCGCCCGGCGUGAUAUUUAAUAUUUUAAUAA [Exclusion - Arginine A] | 0.034 µM
25 | CGCCACUCGAGUGAUCCUCACGAGUGGCUACGAGGACCGGUACGGCCGCCACUCGAAUUAACAUGAGGAUCACCCAUGUAAUCUA [Brourdmod08] | 0.03 µM
26 | CCUGAUAACUGAAGGAGCGAGAAACCCUACAUGAGGAUCACCCAUGUAUACACGGGAACUUCUCAGGUAGGUCGCAGUAUGUCGG [Rienat] | 0.0712 µM
27 | AAAAUAAAGGCGGCCGCCACUAGAGUUAGGCAUAUGUACUGGGUAACAUGAGGAUCACCCAUGUAUAGGACCGGGCCAUAAUAAA [Same State - Tryptophan B (Freestyle 1)] | 0.0517 µM
28 | UGUCAUGGAAACAUGACUGGUUCUACCGGUCGAGGACCGGUACGGCCGCCACUCGGUUGGUGGCACAUGAGGAUCACCCAUGUUA [SS Tryp A #13] | 0.0285 µM
29 | AUACAUGAGGAUCACCCAUGUCAUUCAGAAGGAGCGUCAUUUUAGACAGGUAGGUCGCUGAUAUUAUCUUUAUACUUUAUGUUUA [JR_ExcArginiA_Sub023] | 0.0191 µM

same assay, conditions: Eterna round: R107; input ligand: none

Row | Sequence | apparent KD of MS2 coat protein
30 | UGGGAAGGAGGAAGGAGCGCCAUAAGGGUGACAGUCUGGGUACAUGAGGAUCACCCAUGUAGGCAGGUAGGUCGCCUCGCUCUCA [XArg-B15] | 0.00953 µM
31 | UGUACUAUGUGAAGGAGCGAGAAUCCUACAUGAGGAUCACCCAUGUAAGAGCGAAAGCUCACUCAGGUAGGUCGCACAUAGUACU [#17 Same State - Arginine B] | 0.0429 µM
32 | AGUAGCUGCCGAAGGAGCGCCGUGUUCCUACAUGAGGAUCACCCAUGUAGCGUUGGGUUACGGCAGGUAGGUCGCGGCAGAUAGG [#18 Same State - Arginine B] | 0.03 µM
33 | CGGUCGGUCGGCCGGUGAUUAUGGGAUGAAGGAGCGUGGGAAGCUACAGGUAGGUCGCAUCCGAAAGAUGAGGAUCACCCAUCUU [SSArg A #24Alt-Ms2 Mod] | 0.0303 µM
34 | AAAUAUAACUCGGCCGCCACUGACAUGAGGAUCACCCAUGUUAUAUUUUAUACAUGAGGAUCACCCAGGACCGGGAGAAUAUAAA [Jonah 1] | 0.94 µM
35 | UCGUGAGUUUCGGAUACCAGUGUGGUCGAUACAUGAGGAUCACCCAUGUUAGAGGAGGUACACCCUUGGCAGCCGGCUGUGGCGG [hlhmullin] | 0.0235 µM
36 | AUAUUAAUCGGAAGGAGCGGUACAUGAGGAUCACCCAUGUGCUAAGCUAGCAGAUCCCGUUACCAGGUAGGUCGCCGAGUUAUGA [Titeonra] | 0.024 µM
37 | GGUCUCUGGAGCGAUACCAGCUUGAUCGUACUAGCCUGGUACAUGAGGAUCACCCAUGUAAGCCCUUGGCAGCGCUCCAGAGACC [#1 Exclusion - Theophylline B Attempt #8 (HarryS)] | 0.0127 µM
38 | CCGGGCCCGGGCGACCGGGCCCGGACUGAAGGAGCGGGAAUAAACCCAGGUAGGUCGCAGAGAUCCACAUGAGGAUCACCCAUGU [!0.V] | 0.0309 µM
39 | UCAAUAAUUAGAUUGUUACAUGUAUCAGAAGGAGCGUGAGUAAUCACAGGUAGGUCGCUGUUAACAUGAGGAUCACCCAUGUUUU [JR_ExcArginiA_Sub009] | 0.0409 µM
40 | GGUGGCGUGACGGAUACCAGCCACCACCGCAAGACCACAUGAGGAUCACCCAUGUUGGGUGGCCCUUGGCAGCUGUCGUGCGGCG [#1 Same State - Theophylline B Attempt #19 (HarryS)] | 0.213 µM
41 | ACAUGAGGAUCACCCAUGUAAUCAUCAGAAGGAGCGUGGAAUAACACAGGUAGGUCGCUGAUGUUAUGUUAAAAUGGUUCGUGAA [JR_ExcArginiA_Sub002] | 0.0191 µM
42 | ACAAGGACAUGAGGAUCACCCAUGUGGGAAGGAGCGCAUAAAUAUGCAGGUAGGUCGCCCGGCGUGAUAUUUAAUAUUUUAAUAA [Exclusion - Arginine A] | 0.0557 µM
43 | CCUGAUAACUGAAGGAGCGAGAAACCCUACAUGAGGAUCACCCAUGUAUACACGGGAACUUCUCAGGUAGGUCGCAGUAUGUCGG [Rienat] | 0.0802 µM
44 | AAAAUAAAGGCGGCCGCCACUAGAGUUAGGCAUAUGUACUGGGUAACAUGAGGAUCACCCAUGUAUAGGACCGGGCCAUAAUAAA [Same State - Tryptophan B (Freestyle 1)] | 0.0399 µM
45 | UGUCAUGGAAACAUGACUGGUUCUACCGGUCGAGGACCGGUACGGCCGCCACUCGGUUGGUGGCACAUGAGGAUCACCCAUGUUA [SS Tryp A #13] | 0.0303 µM
46 | AUACAUGAGGAUCACCCAUGUCAUUCAGAAGGAGCGUCAUUUUAGACAGGUAGGUCGCUGAUAUUAUCUUUAUACUUUAUGUUUA [JR_ExcArginiA_Sub023] | 0.0183 µM

same assay, conditions: Eterna round: R107; input ligand: theophylline 20 uM

Row | Sequence | apparent KD of MS2 coat protein
47 | AGACAUGAGGAUCACCCAUGUAGUACGGAUACCAGAUCCAGAUGCAUCCCUUGGCAGCUGUGGUACAGCGUUACAUCGCUCGUAG [Exclusion - Theophylline A (Freestyle 22)] | 0.0239 µM
48 | UGGGAAGGAGGAAGGAGCGCCAUAAGGGUGACAGUCUGGGUACAUGAGGAUCACCCAUGUAGGCAGGUAGGUCGCCUCGCUCUCA [XArg-B15] | 0.0128 µM
49 | CUGUUUGUUUGGGUCUGUCAAAAGAACGAUACCAGCCGCAUUAUGGGCCCUUGGCAGCGUAGGACAUGAGGAUCACCCAUGUACG [theeternabot_exclusion_MS2_Theo_A_16] | 0.022 µM
50 | UGUACUAUGUGAAGGAGCGAGAAUCCUACAUGAGGAUCACCCAUGUAAGAGCGAAAGCUCACUCAGGUAGGUCGCACAUAGUACU [#17 Same State - Arginine B] | 0.0441 µM
51 | ACAUGAGGAUCACCCAUGUGAAGCAGGGUACGAGGACCGGUACGGCCGCCACUCGAGCAUUAUACCGAGUGAAUGGCAACGAUGU [whbob_Ex_trypto A_2s17] | 0.019 µM
52 | AGUAGCUGCCGAAGGAGCGCCGUGUUCCUACAUGAGGAUCACCCAUGUAGCGUUGGGUUACGGCAGGUAGGUCGCGGCAGAUAGG [#18 Same State - Arginine B] | 0.0382 µM
53 | ACAUGAGGAUCACCCAUGUGUGUAAAUCCUCGAGGACCGGUACGGCCGCCACUCGAACGAGUGUAAGUUGAAUGUAACAUUCAAC [SS Trp A v1] | 0.123 µM
54 | ACGAAACAAGCGGCCGCCACUUCGUGGUGCUAAGGCUUGAUACUACAUGAGGAUCACCCAUGUCGAAGGACCGGGCUUGCGACUG [theeternabot_sameState_MS2_Trp_B_33] | 0.08 µM
55 | CGGUCGGUCGGCCGGUGAUUAUGGGAUGAAGGAGCGUGGGAAGCUACAGGUAGGUCGCAUCCGAAAGAUGAGGAUCACCCAUCUU [SSArg A #24Alt-Ms2 Mod] | 0.0344 µM
56 | AAAUAUAACUCGGCCGCCACUGACAUGAGGAUCACCCAUGUUAUAUUUUAUACAUGAGGAUCACCCAGGACCGGGAGAAUAUAAA [Jonah 1] | 0.484 µM
57 | UCGUGAGUUUCGGAUACCAGUGUGGUCGAUACAUGAGGAUCACCCAUGUUAGAGGAGGUACACCCUUGGCAGCCGGCUGUGGCGG [hlhmullin] | 0.0354 µM
58 | AGCGUGCAUAGGAAAACUAUGUACGCAAAUCGAGGACCGGUACGGCCGCCACUCGUCCUCAACAUGAGGAUCACCCAUGUAAUAA [Mat - Exclusion - Trytophan A - D9] | 0.0267 µM
59 | GAAUCUACAAACGAUACCAGAUCCGGCUGCCACAUGAGGAUCACCCAUGUCUAGCGACUCAUCCCUUGGCAGCGUGUGCAUCCCG [theeternabot_sameState_MS2_Theo_B_37] | 0.612 µM
60 | AUAUUAAUCGGAAGGAGCGGUACAUGAGGAUCACCCAUGUGCUAAGCUAGCAGAUCCCGUUACCAGGUAGGUCGCCGAGUUAUGA [Titeonra] | 0.0309 µM
